Assays:
[1] = target: T1, PDGF-AB (Homo sapiens, UniProt P04085;P01127 P04085:87-211,P01127:82-190); test: filter; +/-34; high affinity component of biphasic binding; details: tags: R&D Systems, E. coli
Method: (§1) Briefly, the 2′-fluoro-2′-deoxypyrimidine RNA for affinity selections was prepared by in vitro transcription from synthetic DNA templates using T7 RNA polymerase (Milligan et al., Nucl. Acids Res. 15:8783 (1987)). The conditions for in vitro transcription described in detail previously (Jellinek et al., (1994) supra) were used, except that higher concentration (3 mM) of the 2′-fluoro-2′-deoxypyrimidine nucleoside triphosphates (2′-F-UTP and 2′-F-CTP) was used compared to ATP and GTP (1 mM). Affinity selections were done by incubating PDGF AB with 2′-fluoro-2′-deoxypyrimidine RNA for at least 15 min at 37° C. in PBS containing 0.01% human serum albumin. Partitioning of free RNA from protein-bound RNA was done by nitrocellulose filtration as described (Jellinek et al., (1993, 1994) supra). Reverse transcription of the affinity-selected RNA and amplification by PCR were done as described previously (Jellinek et al., (1994) supra). […] The affinity-enriched pool (round 19) was cloned and sequenced as described (Schneider et al., (1992) supra). The unique-sequence ligands were screened for their ability to bind PDGF AB with high affinity.

[2] = target: T2, KGF (hKGF) (Homo sapiens, UniProt P21781 P21781:32-194); test: competition; PC-3 cells; details: tags: Upstate Biotechnology
T2 sequence: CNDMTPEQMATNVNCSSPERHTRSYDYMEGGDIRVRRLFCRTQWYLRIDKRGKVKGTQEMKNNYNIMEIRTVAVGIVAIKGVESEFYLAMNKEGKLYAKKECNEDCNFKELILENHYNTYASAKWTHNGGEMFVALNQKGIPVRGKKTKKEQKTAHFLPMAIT
Method: PC-3 cells were plated in 24-well plates at about 10⁵ cells per well. Following growth for […], the cells were serum starved for 24 hours, washed two times with 500 μl of cold DPBS, and then incubated with 500 μl binding buffer (BB1; DPBS, 0.5 mM MgCl₂, 0.2% BSA. 0.02% sodium azide) containing various concentrations of ¹²⁵I-labeled KGF ranging from 0 to 0.8 nM. Following 3-3.5 hour incubation at 4° C., the binding mixes were aspirated and the well-adhered cells were washed two times with 1 ml BB1 and once with 1 ml BB1 supplemented with 0.5M NaCl. The remaining bound labeled hKGF was solubilized in 600 μl 0.5% SDS/0.1M NaOH and counted in a gamma counter (Beckmann). Nonspecific binding was determined in the presence of 100 fold molar excess of unlabeled hKGF. For competition assays, the labeled hKGF was kept constant at […], and varying concentrations of competitor molecules were included in the binding reactions ranging from 0-1,000 nM. Binding curves were fitted to the equation: […]
A subset of these ligands was tested on the NIH3T3/FGFR-2. In determining the Ki values, it was assumed that 3T3 cells have 500,000 binding sites per cell and PC-3 cells have 5,000 binding sites per cell.

[3] = target: T2, KGF (hKGF); test: filter; biphasic, high affinity 28%; details: tags: Upstate Biotechnology; label: 32P
[4] = target: T3, PDGF-AA (Homo sapiens, UniProt P04085 P04085:87-211); test: filter; +/-8; PBSM, 37 C; comparable to random DNA; details: tags: R&D Systems, E. coli, long form of A-chain; chain copies: 2 (inferred); label: 5'-32P; three-way helix junction
Method: (§2) The fraction of ³²P 5′ nd-labeled DNA ligands bound to varying concentrations of PDGF was determined by the nitrocellulose filter binding method. Minimal ligands tested were 20t (o), 36t (Δ), and 41t (□). Oligonucleotide concentrations in these experiments were ≈10 pM (PDGF-AB and PDGF-BB) and ≈50 pM (PDGF AA). Data points were fitted to eq. 1 (for binding of the DNA ligands to PDGF-AA) or to eq. 2 (for binding to PDGF AB and BB) using the non-linear least squares method. Binding reactions were done at 37° C. in binding buffer (PBSM with 0.01% HSA).
(§3) The binding of ssDNA ligands at low concentrations to varying concentrations of PDGF was determined by the nitrocellulose filter binding method as described (Green et al., (1995) Chemistry and Biology 2:683-695). The concentrations of PDGF stock solutions (in PBS) were determined from the absorbance readings at 280 nm using the following e₂₈₀ values calculated from the amino acid sequences (Gill, S.C. and von Hippel, P. H. (1989) Anal. Biochem. 182:319-326): 19,500 M⁻¹cm⁻¹ for PDGF-AA, 15,700 M⁻¹cm⁻¹ for PDGF-AB and 11,800 M⁻¹cm⁻¹ for PDGF-BB. ssDNA for all binding experiments were purified by electrophoresis on 8% (>80 nucleotides) or 12% (<40 nucleotides) polyacrylamide/7 M urea gels. […]

[5] = target: T4, PDGF-BB (Homo sapiens, UniProt P01127 P01127:82-190); test: filter; +/-0.011; high affinity component; PBSM, 37 C; details: tags: R&D Systems, E. coli; chain copies: 2 (inferred); label: 5'-32P; three-way helix junction
T4 sequence (P01127 82-190, one chain of several): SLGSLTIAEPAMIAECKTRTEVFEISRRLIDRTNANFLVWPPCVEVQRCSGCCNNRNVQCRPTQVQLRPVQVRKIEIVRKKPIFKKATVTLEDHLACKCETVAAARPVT
Method: as §2
(§4) The binding of ssDNA ligands at low concentrations to varying concentrations of PDGF was determined by the nitrocellulose filter binding method as described (Green et al., (1995) Chemistry and Biology 2:683-695). The concentrations of PDGF stock solutions (in PBS) were determined from the absorbance readings at 280 nm using the following e₂₈₀ values calculated from the amino acid sequences (Gill, S.C. and von Hippel, P. H. (1989) Anal. Biochem. 182:319-326): 19,500 M⁻¹cm⁻¹ for PDGF-AA, 15,700 M⁻¹cm⁻¹ for PDGF-AB and 11,800 M⁻¹cm⁻¹ for PDGF-BB. ssDNA for all binding experiments were purified by electrophoresis on 8% (>80 nucleotides) or 12% (<40 nucleotides) polyacrylamide/7 M urea gels. All ssDNA ligands were heated at 90° C. in binding buffer at high dilution (1 μM) for 2 min and cooled on ice prior to further dilution into the protein solution. The binding mixtures were typically incubated for 15 min at 37° C. before partitioning on nitrocellulose filters.
(§5) ^aData points shown in FIG. 5A were fitted to eq 1 (Example 7). ^bData points in FIGS. 5B and 5C were fitted to eq. 2.

[6] = target: T1, PDGF-AB; test: filter; +/-0.009; high affinity component; PBSM, 37 C; details: tags: R&D Systems, E. coli; label: 5'-32P; three-way helix junction
Method: as §2, §3

[7] = target: T1, PDGF-AB; test: filter; +/-38; high affinity component of biphasic binding; details: tags: R&D Systems, E. coli
Method: as §1

[8] = target: T1, PDGF-AB; test: filter; +/-0.011; high affinity component; PBSM, 37 C; details: tags: R&D Systems, E. coli; label: 5'-32P; three-way helix junction
Method: as §2, §4, §5

[9] = target: T4, PDGF-BB; test: filter; +/-0.009; high affinity component; PBSM, 37 C; details: tags: R&D Systems, E. coli; chain copies: 2 (inferred); label: 5'-32P; three-way helix junction
Method: as §2, §3

[10] = target: T3, PDGF-AA; test: filter; +/-12; PBSM, 37 C; comparable to random DNA; details: tags: R&D Systems, E. coli, long form of A-chain; chain copies: 2 (inferred); label: 5'-32P; three-way helix junction
Method: as §2, §3

[11] = target: T1, PDGF-AB; test: filter; thrombin aptamer control; details: tags: R&D Systems, E. coli; stem-loop
Method: as §4

[12] = target: T5, TGFβ1 (Homo sapiens, UniProt P01137 P01137:279-390); test: filter; 37 C; cell IC50 49 nM; details: tags: Genentech; biotinylated version used in bead assay; chain copies: 2
T5 sequence (P01137 279-390, one chain of several): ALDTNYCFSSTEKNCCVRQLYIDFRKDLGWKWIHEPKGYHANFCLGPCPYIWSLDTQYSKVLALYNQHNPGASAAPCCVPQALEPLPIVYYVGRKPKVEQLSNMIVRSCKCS

[13] = target: T5, TGFβ1; test: cell_activity; details: tags: Genentech or R&D Systems; chain copies: 2
Method: MLEC-Pail/luc cells were plated at 3.2×10⁴ cells per well in a 96 well Falcon plate, in 100 μl of DME+10% fetal bovine serum overnight. Media was made from autoclaved water. The cells were washed three times ([…]) in serum free DME plus Solution A (1:1). Solution A is 30 mM Hepes pH 7.6, 10 mM glucose, 3.0 mM KCl, 131 mM NaCl, 1.0 mM disodium phosphate. Samples (100 μl) were added in DME containing 20 mM Hepes pH 7.5, and 0.1% BSA (Fluka, radioimmunoassay grade). All samples were in triplicate. After six hours at 37° C. in a 5% CO₂ incubator the media was removed and cells were washed three times (100 μl each) in cold PBS. Lysis buffer (75 μl) (Analytical Luminescence Laboratory) was added and the plates incubated on ice for 20 min. The plates were sealed and frozen at −80° C. until assayed. Samples (25 μl) were assayed for luciferase activity with the Enhanced Luciferase Assay Kit from Analytical Luminescence Laboratory (San Diego, Calif., USA) according to the manufacturer's instructions using the Berthold Microlumat LB96P luminometer.
Ligands tested for inhibition of TGFβ1 activity were tested at a minimum of five concentrations. The ligands were serially diluted in DME, 20 mM Hepes pH 7.5, 0.1% Fluka BSA in polypropylene tubes and an equal volume of media containing 12 pM TGFβ1 was added to each tube, vortexed and transferred to the cells without further incubation.

[14] = target: T5, TGFβ1; test: filter; 37 C; cell IC50 210 nM; details: tags: Genentech; biotinylated version used in bead assay; chain copies: 2
[15] = target: T5, TGFβ1; test: filter; 37 C; cell IC50 124 nM; details: tags: Genentech; biotinylated version used in bead assay; chain copies: 2
[16] = target: T5, TGFβ1; test: filter; 37 C; cell IC50 17 nM; details: tags: Genentech; biotinylated version used in bead assay; chain copies: 2
[17] = target: T2, KGF (hKGF); test: filter; second value 8.70 nM; details: tags: Upstate Biotechnology; label: 32P
[18] = target: T2, KGF (hKGF); test: filter; biphasic, high affinity 33%; details: tags: Upstate Biotechnology; label: 32P
[19] = target: T2, KGF (hKGF); test: filter; biphasic, high affinity 43%; Kd2 2.55 nM; details: tags: Upstate Biotechnology; label: 32P

T1 sequence (P01127 82-190, chain 2 of 2, other chains not shown): as the sequence (P01127 82-190, one chain of several) above

B1: PDGF 2'-F clone 16 (ssRNA)
RNA: GGGAGACAAGAAUAACGCUCAACGAACGAGGAGGGAGUGGCAAGGGAUGGUUGGAUAGGCUCUACGCUCAUUCGACAGGAGGCUCACAACAGGC
modifications: 2'-F pyrimidines
- Kd [1]: 0.116 nM

B2: 13F (ssRNA)
RNA: GGGAGGACGAUGCGGCACCUUAGACCUGUCCUCCAAGCGUGAGUUGCUGUGGCCCAGACGACUCGCCCGA
modifications: 2'-F pyrimidines
- IC50 [2]: 30 nM
- Kd [3]: 0.03 nM

Binder: TACTCAGGGCACTGCAAGCAATTGTGGTCCCAATGGGCTGAGTAT (ssDNA, 3'-3' linked T at 3' end) [41t]
- Kd [4]: 49 nM
- Kd [5]: 0.129 nM
- Kd [6]: 0.138 nM

B3: PDGF 2'-F clone 23 (ssRNA)
RNA: GGGAGACAAGAAUAACGCUCAAUCGAUCGGUUGUGUGCCGGACAGCUUUGACCAUGAGCUGGGACCGAGGCCUUCGACAGGAGGCUCACAACAGGC
modifications: 2'-F pyrimidines
- Kd [7]: 0.173 nM

Binder: CACAGGCTACGGCACGTAGAGCATCACCATGATCCTGTGT (ssDNA, 3'-3' linked T at 3' end) [36t]
- Kd [8]: 0.094 nM
- Kd [9]: 0.093 nM
- Kd [10]: 72 nM

Binder: CAGTCCGTGGTAGGGCAGGTTGGGGTGACTTCGTGGAAT (ssDNA, 3'-3' linked T at 3' end) [T39]
- Kd [11]: 230 nM

B4: lib5-5 (ssRNA)
RNA: GGGGGAGAACGCGGAUCCGAGCAAUCCCAGGCGCAUAGCUUCCGAGUAGACAGGAGGGAGGGGUGGAUGUGGCGUCUCGAGGAAGCUUCGCUCUAGAUCUCCCUUUAGUGAGGGUUA
modifications: 2'-NH2 pyrimidines
- Kd [12]: 2.4 nM
- IC50 [13]: 49 nM

B5: lib8-9 (ssRNA)
RNA: GGGGGAGAACGCGGAUCCGCAAUCCCAGGCGCAUAGCUUCCGAGUAGACAGGAGGGAGGGGUGGAUGUGGCGUCUACUCGGCGUCGUGAAGCUUCGCUCUAGAUCUCCCUUUAGUGAGGGUUA
modifications: 2'-NH2 pyrimidines
- Kd [14]: 1.7 nM
- IC50 [13]: 210 nM

B6: lib8-9* (ssRNA)
RNA: GGGGGAGAACGCGGAUCCGCAAUCCCAGGCGCAUAGCUUCCGAGUAGACAGGAGGGAGGGGUGGAUGUGGCGUCUACUCGGCGUCGUGAAGCUUCGCUCUAGAUCUCCCUUUAGUGAGGGUUA
modifications: 2'-NH2 U, 2'-F C
- Kd [15]: 2.8 nM

B7: lib5-7 (ssRNA)
RNA: GGGGGAGAACGCGGAUCCGAGCAAGCCCUGGCAUAGCUUCCGAGUAGACAGGAGGGAGGGGUGGAUGUGGCGUCUACUCGGUGUCGUGAAGCUUCGCUCUAGAUCUCCCUUUAGUGAGGGUUA
modifications: 2'-NH2 pyrimidines
- Kd [16]: 3.4 nM
- IC50 [13]: 17 nM

B8: 20F (ssRNA)
RNA: GGGAGGACGAUGCGGAGUAUUCCAGCCUGGAUUCAUAGUCAGUGCUCUCCGUGCCCAGACGACUCGCCCGA
modifications: 2'-F pyrimidines
- Kd [17]: 2.05 nM

B9: 15F (ssRNA)
RNA: GGGAGGACGAUGCGGUCAUGGUGUCUUUCCACAGCUCUUCCCAUGAUCGCCCGGCCAGACGACUCGCCCGA
modifications: 2'-F pyrimidines
- Kd [18]: 0.07 nM
- IC50 [2]: 20 nM

B10: 26F (ssRNA)
RNA: GGGAGGACGAUGCGGUCAAGCUUAACAGUCUGGCAAUGGCCAUUAUGGCGCCCCAGACGACUCGCCCGA
modifications: 2'-F pyrimidines
- Kd [19]: 0.23 nM

Reference: US20030180744, “High affinity oligonucleotide ligands to growth factors” (GILEAD SCIENCES, INC., published 2003)
